Test results from patent US20050080013A1 (Pfizer, published 2005).
Non-standard residues stand in square brackets, D forms with d. No end group written: not given here. Orn = NCCC[C@H](N)C(=O)O

T1: lecithin:cholesterol acyltransferase (LCAT), purified from human plasma (human, UniProt P04180 25-440)
T1 sequence (looked up): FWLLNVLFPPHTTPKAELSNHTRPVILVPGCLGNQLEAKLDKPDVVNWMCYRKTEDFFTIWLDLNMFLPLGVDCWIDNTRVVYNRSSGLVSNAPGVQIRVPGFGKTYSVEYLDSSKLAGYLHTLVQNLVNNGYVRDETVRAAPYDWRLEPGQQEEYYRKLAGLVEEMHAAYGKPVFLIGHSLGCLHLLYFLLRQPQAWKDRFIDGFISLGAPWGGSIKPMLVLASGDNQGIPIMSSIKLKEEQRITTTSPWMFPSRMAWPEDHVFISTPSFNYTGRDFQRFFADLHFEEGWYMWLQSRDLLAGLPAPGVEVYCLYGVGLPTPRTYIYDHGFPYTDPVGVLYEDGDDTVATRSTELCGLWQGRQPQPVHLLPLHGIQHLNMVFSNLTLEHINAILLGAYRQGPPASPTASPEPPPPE

B1: peptide 211 (peptide)
peptide: Ac-PVLDLFRELLEEL[Orn]Q[Orn]L[Orn]-NH2
SMILES: CC(=O)N1CCC[C@H]1C(=O)N[C@H](C(=O)N[C@@H](CC(C)C)C(=O)N[C@@H](CC(=O)O)C(=O)N[C@@H](CC(C)C)C(=O)N[C@@H](Cc1ccccc1)C(=O)N[C@@H](CCCNC(=N)N)C(=O)N[C@@H](CCC(=O)O)C(=O)N[C@@H](CC(C)C)C(=O)N[C@@H](CC(C)C)C(=O)N[C@@H](CCC(=O)O)C(=O)N[C@@H](CCC(=O)O)C(=O)N[C@@H](CC(C)C)C(=O)N[C@@H](CCCN)C(=O)N[C@@H](CCC(N)=O)C(=O)N[C@@H](CCCN)C(=O)N[C@@H](CC(C)C)C(=O)N[C@@H](CCCN)C(N)=O)C(C)C
B2: peptide 212 (peptide)
peptide: Ac-PVLDLF[Orn]ELLEEL[Orn]Q[Orn]LK-NH2
SMILES: CC(=O)N1CCC[C@H]1C(=O)N[C@H](C(=O)N[C@@H](CC(C)C)C(=O)N[C@@H](CC(=O)O)C(=O)N[C@@H](CC(C)C)C(=O)N[C@@H](Cc1ccccc1)C(=O)N[C@@H](CCCN)C(=O)N[C@@H](CCC(=O)O)C(=O)N[C@@H](CC(C)C)C(=O)N[C@@H](CC(C)C)C(=O)N[C@@H](CCC(=O)O)C(=O)N[C@@H](CCC(=O)O)C(=O)N[C@@H](CC(C)C)C(=O)N[C@@H](CCCN)C(=O)N[C@@H](CCC(N)=O)C(=O)N[C@@H](CCCN)C(=O)N[C@@H](CC(C)C)C(=O)N[C@@H](CCCCN)C(N)=O)C(C)C
B3: peptide 214 (peptide)
peptide: Ac-[dP]VLDLFRELLEELKQKLK-NH2
SMILES: CC(=O)N1CCC[C@@H]1C(=O)N[C@H](C(=O)N[C@@H](CC(C)C)C(=O)N[C@@H](CC(=O)O)C(=O)N[C@@H](CC(C)C)C(=O)N[C@@H](Cc1ccccc1)C(=O)N[C@@H](CCCNC(=N)N)C(=O)N[C@@H](CCC(=O)O)C(=O)N[C@@H](CC(C)C)C(=O)N[C@@H](CC(C)C)C(=O)N[C@@H](CCC(=O)O)C(=O)N[C@@H](CCC(=O)O)C(=O)N[C@@H](CC(C)C)C(=O)N[C@@H](CCCCN)C(=O)N[C@@H](CCC(N)=O)C(=O)N[C@@H](CCCCN)C(=O)N[C@@H](CC(C)C)C(=O)N[C@@H](CCCCN)C(N)=O)C(C)C

Each binder was assayed against T1, lecithin:cholesterol acyltransferase … (assay: cell-based or functional assay).

Row | ACTIVITY (%) LCAT [%] | Binder
1 | 17 | PVLELFENLLEKLLDALQKKLK [peptide 169]
2 | 17 | PVLELFENLLE[Orn]LLDALQ[Orn][Orn]L[Orn] [peptide 170]
3 | 60 | Ac-PVLDLFREWLEELKQKLK-NH2 [peptide 205]
4 | 100 | Ac-PVLDLFKELLEELKQKLK-NH2 [peptide 192]
5 | 42 | Ac-PALELFKDLLEEFRQRLK-NH2 [peptide 213]
6 | 18 | PVLELFENGLERLLDALQKKLK [peptide 167]
7 | 63 | Ac-PVLDFFRELLEELKQKLK-NH2 [peptide 204]
8 | 23 | PVLELFENLLERLLDLLQKKLK [peptide 165]
9 | 16 | PVLELFLNLLERLGDALQKKLK [peptide 172]
10 | 59 | PVLELFKELLQELLEALKQKLK [peptide 17]
11 | 4 | PVLELFLNLLERLLDAWQKKLK [peptide 184]
12 | 46 | PVLDLFRELLEELKQKLK [peptide 210]
13 | 15 | PVLDLFDNLLDRLLDLLNKKLK [peptide 173]
14 | 80 | Ac-GVLDLFRELLEELKQKLK-NH2 [peptide 198]
15 | 45 | B1
16 | 66 | Ac-AVLDLFRELLEELKQKLK-NH2 [peptide 203]
17 | 87 | Ac-PVLELFKELLEELKQKLK-NH2 [peptide 195]
18 | 48 | Ac-PALELFKDLLEELRQRLK-NH2 [peptide 208]
19 | 8 | PVLELFDNLLERLLDALQKKLK [peptide 179]
20 | 50 | Ac-PVLELLKELLEELKQKLK-NH2 [peptide 207]
21 | 22 | PVLELFLNLLEKLLDALQKKLK [peptide 166]
22 | 17 | PVLELFEQLLEKLLDALQKKLK [peptide 168]
23 | 11 | PVLELWENLLERLLDALQKKLK [peptide 176]
24 | 47 | PVLDLFRELLNELLQKLK [peptide 209]
25 | 60 | PVLDLFRELWNELLEALKQKLK [peptide 15]

Row | ACTIVITY (%) LCAT [%] | Binder
26 | 88 | Ac-PVLELFRELLEELKQKLK-NH2 [peptide 194]
27 | 70 | Ac-PALELFKDLLEELRQKLR-NH2 [peptide 202]
28 | 43 | B2
29 | 8 | PVLELFENLLERWLDALQKKLK [peptide 181]
30 | 6 | PLLELFENLLEKLLDALQKKLK [peptide 183]
31 | 16 | PVLELFENLLEKLLDLLQKKLK [peptide 171]
32 | 81 | Ac-PVLDLFRELLEELKNKLK-NH2 [peptide 196]
33 | 24 | PVLELFENLLERLLDAWQKKLK [peptide 164]
34 | 74 | Ac-PLLDLFKELLEELKQKLK-NH2 [peptide 201]
35 | 58 | GVLDLFRELLNELLEALKQKLK [peptide 18]
36 | 57 | Ac-PLLELLKELLEELKQKLK-NH2 [peptide 206]
37 | 81 | Ac-PLLDLFRELLEELKQKLK-NH2 [peptide 197]
38 | 39 | B3
39 | 9 | PVLELFDNLLEKLLEALQKKLR [peptide 178]
40 | 8 | PVLELFDNLLDKLLDALQKKLR [peptide 180]
41 | 10 | GVLELFLNLLERLLDALQKKLK [peptide 177]
42 | 13 | [dP][dV][dL][dE][dL][dF][dE][dN][dL][dL][dE][dR][dL][dL][dD][dA][dL][dQ][dK][dK][dL][dK] [peptide 174]
43 | 13 | PVLELFENLLERLLELLNKKLK [peptide 175]
44 | 96 | Ac-PVLDLFRELLEELKQKLK-NH2 [peptide 193]
45 | 59 | PVLDLLRELLNELLEALKQKLK [peptide 16]
46 | 76 | Ac-PVLDLFRELWEELKQKLK-NH2 [peptide 199]
47 | 7 | PVLELFENLLEKLLEALQKKLK [peptide 182]
48 | 3 | PVLELFENLLERLLDALQ[Orn][Orn]L[Orn] [peptide 185]
49 | 75 | Ac-NVLDLFRELLEELKQKLK-NH2 [peptide 200]
50 | 100 | Ac-PVLDLLRELLEELKQKLK-NH2 [peptide 191]
